Results as given in patent US20120263651, “Single Stranded DNA Aptamers Binding NF-kB/RelA” (Board of Regents, The University of Texas System, published 2012).

B1: P028F4 (ssDNA)
DNA: GGGTAACCTTGAGTCACGAATTCAAGCGGGACAGGAGAAACACGGCATGTCAGCGAAGGTACCCAACTTACAGCTTCTGG

What was measured:
[1] = biological target: endogenous RelA in A549 cells (Homo sapiens, UniProt Q04206 Q04206:1-551); assay: cell_activity; 4 uM transfected aptamer; control induction 5-fold (Gro-beta) and nearly 7-fold (TNFAIP3)
Procedure: A549 cells transfected with nothing (−), 4 μM P028A1 or P028F4 aptamers were stimulated in the absence (Con) or presence of TNF. (1 h, 30 ng/ml). Total RNA was extracted and subjected to Q-RT-PCR for Gro-β (top panel) and TNFAIP3/A20 (bottom panel). Data are normalized to GAPDH and expressed as fold change relative to uninfected control. Each bar is mean±SD of triplicate determination. * p<0.05 and (4B) ChIP assay. A549 cells transfected with nothing (−), P028A1 (4 μM) or P028F4 (4 μM) were stimulated in the absence (Con) or presence of TNF (1 h, 30 ng/ml). Two-step ChIP was preformed using pre-immune IgG (IgG), or anti-RelA as the primary Abs. Immunoprecipitated DNA was subjected to quantitative PCR using primers for Groβ (top) or TNFAIP3/A20 promoters (bottom) as indicated. Data are shown as fold increase in signal relative to unstimulated A549 cells (X, ±SD of technical replicates). The study was repeated twice with similar results;
Aptamer P028F4 inhibits TNFα-induced endogenous NF-κB dependent gene expression: Earlier studies selectively inhibiting NF-κB/RelA translocation identified Groβ and TNFAIP3/A20 as part of a TNFα inducible gene network downstream of NF-κB (3,4,39). […] Relative changes in Groβ and TNFAIP3/A20 transcripts were determined by Q-RT-PCR. […]

[2] = biological target: GST-RelA(1-313) (NF-kB p65, DNA binding and IkBa interactive domain) (UniProt Q04206 Q04206:1-313); assay: filter; variable region alone sufficient for binding; data not shown; competition and direct binding; conditions: tags: GST; chain copies: 2
Procedure: Binding Studies: (i) Nitrocellulose filter binding assay: Filter binding assays were performed as described (22). Initially, 70 mer oligonucleotides were commercially synthesized (IDT) to include the proximal 20 bases of each flanking primer sequence and the 30 base variable region. DNAs were 5′ end-labeled with ³²P-ATP using T4-PNK (New England Biolabs) and purified by glass bead binding using a MERMAID kit (MP Biomedicals LLC). Protein and labeled aptamer were incubated in ABB and filtered through 25 mm nitrocellulose filters. The bound material was counted in a Beckman Liquid Scintillation counter. For competition studies, binding reactions (100 μL) in ABB were incubated at RT for 20 min with 100 fold excess (10 picomoles) of unlabeled competitor DNAs, followed by the addition of 0.1 picomole of ³²P-labeled KB55 probe. After 30 min of incubation, reactions were filtered and counted. The KB55 sequence is […] (SEQ ID NO: 3) and self anneals to form a duplex. Upper and lower strands of IL8KB are […] (SEQ ID NO: 4) and […] (SEQ ID NO: 5), respectively.
Isolation of RelA(1-313) binding single stranded aptamer: Purified recombinant GST-RelA(1-313), encoding the DNA binding and IκBα interactive domain, was used to screen for high affinity ssDNA aptamers by repeated rounds of in vitro binding and enrichment. […]

Chain of endogenous RelA in A549 cells (Q04206 whole entry, one chain of several): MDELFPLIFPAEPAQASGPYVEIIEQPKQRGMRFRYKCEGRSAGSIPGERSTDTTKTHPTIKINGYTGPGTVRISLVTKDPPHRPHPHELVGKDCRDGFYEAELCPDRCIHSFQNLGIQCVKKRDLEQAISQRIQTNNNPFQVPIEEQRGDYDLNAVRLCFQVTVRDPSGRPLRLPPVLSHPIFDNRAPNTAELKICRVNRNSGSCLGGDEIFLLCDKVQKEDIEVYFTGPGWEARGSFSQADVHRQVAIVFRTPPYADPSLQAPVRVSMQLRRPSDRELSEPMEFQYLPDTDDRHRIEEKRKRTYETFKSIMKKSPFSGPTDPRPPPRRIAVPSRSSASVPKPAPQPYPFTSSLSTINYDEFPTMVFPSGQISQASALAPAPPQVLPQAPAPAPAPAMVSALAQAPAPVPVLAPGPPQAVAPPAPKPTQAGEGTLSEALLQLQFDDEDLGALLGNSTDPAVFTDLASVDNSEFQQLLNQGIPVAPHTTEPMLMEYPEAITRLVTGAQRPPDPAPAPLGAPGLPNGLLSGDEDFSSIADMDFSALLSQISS
Chain of GST-RelA(1-313) (NF-kB p65, DNA binding and IkBa interactive domain) (Q04206 1-313, one chain of several): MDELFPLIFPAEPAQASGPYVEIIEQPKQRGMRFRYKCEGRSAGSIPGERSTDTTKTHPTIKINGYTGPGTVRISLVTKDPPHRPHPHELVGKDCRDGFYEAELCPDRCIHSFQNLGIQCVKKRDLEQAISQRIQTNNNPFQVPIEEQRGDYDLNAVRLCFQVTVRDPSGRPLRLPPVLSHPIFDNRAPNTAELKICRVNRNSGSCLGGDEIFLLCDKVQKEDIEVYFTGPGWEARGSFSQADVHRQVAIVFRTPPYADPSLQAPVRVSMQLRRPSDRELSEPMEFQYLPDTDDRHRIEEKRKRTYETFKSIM

Binder | activity [1] | binding result [2]
B1 | < 2 fold induction of Gro-beta and TNFAIP3 mRNA | 
GCGGGACAGGAGAAACACGGCATGTCAGCG (ssDNA) [P028F4 30-base variable region] |  | binds
